Measured values as given in paper PMC9268357 (Science (New York, N.y.), 2021).

How the values were obtained:
[1] = target: SARS-CoV-2 or SARS-CoV stem helix peptide (SARS-CoV-2; region stated to be …, biotin); assay: BLI; conditions: both partners purified
[2] = target: T1, prefusion-stabilized HKU1 S ectodomain trimer (Human coronavirus HKU1, isolate not …, UniProt Q5MQD0, stabilised); assay: ELISA; conditions: both partners purified
[3] = target: prefusion-stabilized OC43 S ectodomain trimer (Human coronavirus OC43, isolate not …, UniProt P36334, stabilised); assay: cell-based or functional assay
[4] = target: T1, prefusion-stabilized HKU1 S ectodomain …; assay: SPR; S2P6 Fab fragment and S glycoproteins (fig. S1, G and H); conditions: both partners purified

B1: S2P6 monoclonal antibody (antibody, V domains shown)
VH: EVQLVQSGAEVKKPGASVKVSCKASGYTFTSQYMHWVRQAPGQGLEWIGIINPSGVHTSYAQKFQGRVTLTRDTSTSTLYMELSSLRSEDTAVYYCARGSPKGAFDYWGQGTLVTVSS
VL: not shown
notes: also called S2P6 mAb; S2P6 IgG; copies: 2 + 2
binding result [1]: binds
binding result [2]: binds
neutralization of VSV pseudotyped with OC43 S, IC50 [3]: 1.3 µg/mL

B2: S2P6 Fab fragment (Fab, V domains shown)
VH: B1 VH
VL: not shown
Kd [4]: ~120 nM
